Experimental data: article PMC11102866

Assays:
[1] = target: NR5A2 D159A D159A (Homo sapiens) (UniProt O00482); test: smFRET; conditions: EMSA: 20 mM Tris-HCl pH 7.5, 120 mM NaCl, 1 mM MgCl2, 10 uM ZnCl2, 1 mM DTT, 100 ug/ml BSA, room temperature, 30 min, 50 nM DNA or nucleosome
[2] = target: NR5A2 wild type (Homo sapiens) (UniProt O00482); test: smFRET; conditions: EMSA: 20 mM Tris-HCl pH 7.5, 120 mM NaCl, 1 mM MgCl2, 10 uM ZnCl2, 1 mM DTT, 100 ug/ml BSA, room temperature, 30 min, 50 nM DNA or nucleosome
[3] = target: nucleosome reconstituted with Alexa-Fluor-647-labeled H2A-K119C–H2B, H3.3–H4 and DNA carrying the Nr5a2 motif (mouse) (UniProt P10853); test: FRET or BRET; single-molecule FRET (TIRF): nucleosomes held on the surface by biotin-streptavidin, Cy3 on the 5' end of 601 DNA next to the motif at SHL +5.5, Alexa Fluor 647 on H2A-K119C; NR5A2 flowed in at 0.1 or 0.5 uM (quantified at 0.1 uM); 50 mM Tris pH 7.6, 120 mM NaCl, 1 mM MgCl2, 10 uM ZnCl2, 10% glycerol, 1 mM DTT, 100 ug/ml BSA; 22.5 C; low-FRET state taken as NR5A2 dwell time, single exponential fits, three replicates

Row | average lifetime of the high-FRET (wrapped, unbound) state [3] [s] | duration of the low-FRET (unwrapped) state, taken as NR5A2 dwell time [3] [s] | Substance | binding signal [1] [s] | binding signal ([1]; mean lifetime of low-FRET (unwrapped) state, less stable than wild type) [s] | binding signal [2] [s] | binding signal ([2]; mean lifetime of low-FRET (unwrapped) state) [s]
1 |  |  | 601 nucleosome SHL +5.5 for smFRET, with linker DNA | 16.4 | 9.19 | 20.3 | 16.4
2 | 20.3 | 16.4 | human NR5A2 (from UniProt O00482 1-541) (natural protein) |  |  |  | 
3 | 16.4 | 9.19 | human NR5A2-D159A (from UniProt O00482 1-541) (natural protein) |  |  |  | 
